According to paper PMC7865296, “T Cell Mediated Conversion of a Non-Anti-La Reactive B Cell to an Autoreactive Anti-La B Cell by Somatic Hypermutation †” (International Journal of Molecular Sciences, 2021):

How the values were obtained:
[1] = target: T1, GFP-La fusion protein La_(10–100) (Homo sapiens (Human)., UniProt P05455); assay: SDS-PAGE and immunoblotting; total extracts of HeLa cells transfected with GFP-La fusion constructs (N- or C-terminally truncated La); probed with anti-La mabs; anti-GFP as control; conditions: partners not purified
T1 construct: human La protein, residues 10-100 (La motif region); cloned into pEGFP-C2; pEGFP-C2 places GFP at the N-terminus of the insert (surmise); also called final La deletion mutant of Group 2; source: HeLa, transfected, in total extract

[2] = target: T2, GFP-La fusion protein La_(107–200) (Homo sapiens (Human)., UniProt P05455); assay: as above; conditions: partners not purified
T2 construct: cloned into pEGFP-C2; pEGFP-C2 places GFP at the N-terminus of the insert (surmise); also called final La deletion mutant of Group 1; source: HeLa, transfected, in total extract

[3] = target: T3, eukaryotic human La protein of HeLa cells (Homo sapiens (Human)., UniProt P05455); assay: SDS-PAGE and immunoblotting; total extracts of human HeLa or mouse 3T3 cells, denatured on the blot; probed with hybridoma supernatants; conditions: partners not purified
T3 construct: human La/SS-B autoantigen, endogenous in HeLa cells; also called hLa; source: endogenous, HeLa total extract; endogenous, fixed HeLa cells

[4] = target: T4, recombinant human La protein, full length (aa 1-408), His-tagged (Homo sapiens (Human)., UniProt P05455); assay: SDS-PAGE and immunoblotting; human (rhLa) or mouse (rmLa) La protein recombinantly expressed in E. coli, denatured on the blot; probed with hybridoma supernatants; conditions: one partner purified
T4 construct: also called rhLa; hLa; not shown: His tag, C-terminal, kept

[5] = target: T5, recombinant mouse La protein (Mus musculus (Mouse)., UniProt P32067); assay: as above; conditions: one partner purified
T5 construct: mouse La protein, open reading frame cloned into pET28b; also called rmLa; mLa (recombinant)

[6] = target: T4, recombinant human La protein, full …; assay: SDS-PAGE and immunoblotting; recombinant human La (rhLa) on the blot; probed with purified recombinant 312B Ig4 or 312B ge Ig4; conditions: both partners purified
[7] = target: T6, His-tagged La deletion mutant La_(278–408) (Homo sapiens (Human)., UniProt P05455); assay: SDS-PAGE and immunoblotting; His-tagged full length La and N- and C-terminally truncated La deletion mutants from E. coli (nickel-NTA); probed with 16C; 10-fold the usual amount of protein applied; conditions: one partner purified
T6 construct: cloned into pET28a

Ro60 antigen = target: T7, Ro60 antigen (Homo sapiens (assumed), UniProt P10155); assay: ELISA; hybridoma supernatants on Ro60 antigen; performed as in ref. 59
T7 construct: Ro60 (Ro/SS-A) antigen used in the anti-Ro ELISA; also called Ro/SS-A
T7 sequence (P10155 whole entry): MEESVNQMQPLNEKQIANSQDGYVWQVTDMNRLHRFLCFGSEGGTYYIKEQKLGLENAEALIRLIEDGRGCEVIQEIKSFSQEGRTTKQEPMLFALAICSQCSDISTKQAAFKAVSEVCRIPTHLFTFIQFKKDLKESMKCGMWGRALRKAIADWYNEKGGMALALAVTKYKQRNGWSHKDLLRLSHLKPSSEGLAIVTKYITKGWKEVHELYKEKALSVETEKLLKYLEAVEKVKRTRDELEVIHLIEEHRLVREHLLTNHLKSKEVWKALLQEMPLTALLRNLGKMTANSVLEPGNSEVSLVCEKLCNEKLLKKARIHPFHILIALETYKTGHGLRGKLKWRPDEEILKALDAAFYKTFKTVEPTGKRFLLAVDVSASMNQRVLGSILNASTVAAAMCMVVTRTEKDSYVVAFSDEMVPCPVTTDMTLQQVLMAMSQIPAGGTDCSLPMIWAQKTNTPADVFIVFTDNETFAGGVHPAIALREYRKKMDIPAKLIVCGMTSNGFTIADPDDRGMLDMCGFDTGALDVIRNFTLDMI

T4 sequence (P05455 whole entry, the tested form may be a part): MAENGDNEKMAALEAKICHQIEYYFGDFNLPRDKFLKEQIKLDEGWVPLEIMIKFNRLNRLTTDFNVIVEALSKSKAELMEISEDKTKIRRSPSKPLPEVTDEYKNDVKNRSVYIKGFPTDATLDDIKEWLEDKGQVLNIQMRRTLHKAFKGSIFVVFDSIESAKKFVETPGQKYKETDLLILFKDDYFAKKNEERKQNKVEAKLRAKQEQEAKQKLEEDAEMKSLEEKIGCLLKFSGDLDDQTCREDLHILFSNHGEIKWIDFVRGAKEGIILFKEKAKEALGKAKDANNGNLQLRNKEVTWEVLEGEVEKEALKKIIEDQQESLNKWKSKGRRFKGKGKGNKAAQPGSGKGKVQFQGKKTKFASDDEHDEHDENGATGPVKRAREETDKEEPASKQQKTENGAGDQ
T1 sequence (P05455 10-100): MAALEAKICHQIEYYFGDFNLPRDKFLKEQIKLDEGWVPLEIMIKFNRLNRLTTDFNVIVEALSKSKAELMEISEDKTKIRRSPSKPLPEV
T2 sequence (P05455 107-200): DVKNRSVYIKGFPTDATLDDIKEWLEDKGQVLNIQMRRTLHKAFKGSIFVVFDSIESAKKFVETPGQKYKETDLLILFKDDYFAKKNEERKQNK
T3 sequence (P05455 whole entry): as the sequence (P05455 whole entry, the tested form may be a part) above
T6 sequence (P05455 278-408, stated change not applied): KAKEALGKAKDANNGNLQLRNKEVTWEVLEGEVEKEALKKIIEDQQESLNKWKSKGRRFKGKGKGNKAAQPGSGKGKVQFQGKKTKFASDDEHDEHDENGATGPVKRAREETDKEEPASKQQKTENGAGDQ
T5 sequence (P32067 whole entry): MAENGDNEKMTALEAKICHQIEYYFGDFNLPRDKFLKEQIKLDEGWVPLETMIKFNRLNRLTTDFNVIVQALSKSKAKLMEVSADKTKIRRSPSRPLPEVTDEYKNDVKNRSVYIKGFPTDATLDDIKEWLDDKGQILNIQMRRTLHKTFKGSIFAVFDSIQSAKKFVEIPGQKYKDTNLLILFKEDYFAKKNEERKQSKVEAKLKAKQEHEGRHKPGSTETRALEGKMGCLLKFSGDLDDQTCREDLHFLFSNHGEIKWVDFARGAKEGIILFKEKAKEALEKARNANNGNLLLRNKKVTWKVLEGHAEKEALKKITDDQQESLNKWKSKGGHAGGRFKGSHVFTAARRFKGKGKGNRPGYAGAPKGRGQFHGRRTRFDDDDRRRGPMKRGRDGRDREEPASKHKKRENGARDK

B1: anti-La monoclonal antibody 2F9 (antibody, V domains shown)
VH: EVQLQESGPGILQPSQTLSLTCSFSGFSLSTSGMGVSWIRQPSGKGLEWLAHIYWDDDKGYNPSLKSRLTISKDTSRNQVFLKITSVDTADTATYYCARGDVEFDYWGQGTTLTVSS
VL: DIVLTQSTASLAVSLGQRATISCRASESVDSYGNSFMHWYQQKPGQPPKLLIYRASNLESGIPARFSGSGSRTDFTLTINPVEADDVATYYCQQSNEDPPTFGSGTKLEIK
notes: variable heavy chain of 2F9; variable light chain of 2F9; IgG1; Vl 21-5, JK4; From the human La transgenic mouse; also called Group 2 anti-La mab (2F9); source: hybridoma cell culture supernatant
binding result [1]: binds

B2: anti-La monoclonal antibody 22A (antibody, V domains shown)
VH: QVKLEESGPELVKPGAPVKISCKTSGYTFTNYYIYWVKQRPGQGLEWIGYIYPGNGGTAYNQKFKDKATLTADNPSNTAYMQLSSLTSEDSAVYLCARRGALGYYFDYWGQGTTLTVSS
VL: QIVLTQSPAIMSASPGEKVTMTCSASSSVSYMYWYQQKSGTSPKRWIYDTSKLASGVPARFSGSGSGTSYSLTISSMEAEDAATYYCQQWSSNPQFGTGTKLEVK
notes: variable heavy chain of 22A; variable light chain of 22A; IgG1; Vl kk4, JK5; From the human La transgenic mouse; also called Group 1 anti-La mab (22A); source: hybridoma cell culture supernatant
binding result [2]: binds

B3: anti-La monoclonal antibody 27E (antibody, V domains shown)
VH: EVQLQESGAELARPGASVKLSCKASGYSFRSYGINWVKQRTGQGLEWIGEIYPGSGTTFYNEKFRGKATLTADKSSSTAYMQLKSLTSEDSAVYFCARHGGYPFYFDYWGQGTTLTVSS
VL: DIVMTQSPAIMSASPGEKVTISCSASSSVSYMYWYQQKPGSSPKPWIYRTSNLASGVPARFSGSGSGTSYSLTISSMEAEDAATYYCQQYHSYPRTFGGGTKLEIK
notes: variable heavy chain of 27E; variable light chain of 27E; IgG2b; Vl aa4, JK1; From the human La transgenic mouse; also called Group 2 anti-La mab (27E); source: hybridoma cell culture supernatant
binding result [3]: binds
binding result [4]: binds
binding result [1]: binds

B4: anti-La monoclonal antibody 32A (antibody, V domains shown)
VH: EVQLQQSGAELARPGASVKLSCKASGYTFTTYGLTWVKQRTGQGLEWIGEIFPGSGTTFYNEKFNDKATLTADKSSSTAYMQLTSLTSEDSAVYFCARYSNYPYYFDYWGQGTTLTVSS
VL: QIVLTQSPTIMSASPGEKVTISCSASSSVSYMYWYQQKPGSSPKPWIYRTSNLASGVPDRFSGSGSGTSYSLTISSMEAEDAATYYCQQYHSYPRTFGGGTKLEIK
notes: variable heavy chain of 32A; variable light chain of 32A; IgG1; Vl aa4, JK1; From the human La transgenic mouse; also called Group 2 anti-La mab (32A); source: hybridoma cell culture supernatant
binding result [1]: binds

B5: anti-La monoclonal antibody 312B (antibody, V domains shown)
VH: QVKLQESGAELMKPGSSVKFSCKAAGYTFTDYWIEWLKQRPGHGLEWIGEILPGSVSIKYNEKFKGKATFTADTSSNTAYMQLSSLTSEDSAVYYCARSRSIYDGYFYYWGQGTTLTVSS
VL: DIVMTQSTASLSASVGETVTITCRASENIYTYLAWYQQKQGKSPQLLVYNAKTLAEGVPSRFSGSGSGTQFSLRINSLQPEDFGSYYCQHHYGTPYTFGGGTKLEIK
notes: IgG1; Vl 12-44, JK2; From the human La transgenic mouse; source: hybridoma cell culture supernatant
binding result [3]: binds
binding result [4]: binds
binding result [5]: binds
binding result [1]: binds

B6: recombinant antibody based on the germline 312B sequence (scFv fused on a human IgG4 hinge and Fc) (Fc fusion, mouse)
VH: QVQLQQSGAELMKPGASVKLSCKATGYTFTGYWIEWVKQRPGHGLEWIGEILPGSGSTNYNEKFKGKATFTADTSSNTAYMQLSSLTTEDSAIYYCARSRSIYDGYFDYWGQGTTLTVSS
VL: DIQMTQSPASLSASVGETVTITCRASENIYSYLAWYQQKQGKSPQLLVYNAKTLAEGVPSRFSGSGSGTQFSLKINSLQPEDFGSYYCQHHYGTPYTFGGGTKLEIK
notes: linker, printed as (Gly4Ser)3; VH-VL orientation; an Igkappa leader peptide was fused to the N-terminus for secretion; vector p6NST50; source: stably transduced 3T3 cell line, purified from cell culture supernatant (protein A); not shown: hinge and Fc (CH2-CH3) of human IgG4, C-terminal, kept
binding result [6]: no binding

B7: recombinant antibody based on the mature 312B sequence (scFv fused on a human IgG4 hinge and Fc) (Fc fusion, mouse)
VH: QVKLQESGAELMKPGSSVKFSCKAAGYTFTDYWIEWLKQRPGHGLEWIGEILPGSVSIKYNEKFKGKATFTADTSSNTAYMQLSSLTSEDSAVYYCARSRSIYDGYFYYWGQGTTLTVSS
VL: DIVMTQSTASLSASVGETVTITCRASENIYTYLAWYQQKQGKSPQLLVYNAKTLAEGVPSRFSGSGSGTQFSLRINSLQPEDFGSYYCQHHYGTPYTFGGGTKLEIK
notes: as for B6
binding result [6]: binds

B8: IgM type anti-La monoclonal antibody 16C (antibody, V domains shown)
VH: EVKLEESGPELVKPGSSVKISCKASGYTFTDYNMDWVKQSHGKSLEWIGAINPNNGGTSYNQKFKGKATLTVDKSSSTAYMELRSLTSEDSAVYYCARRDGGSYEWAMDYWGQGTSVTVSS
VL: DIVLTQSPASLSMAIGEKVTIRCITSTDIDDDMNWYQQKPGEPPKLLISEGNTLRPGVPSRFSSSGYGTDFVFTIENMLSEDVADYYCLQSDNLPLTFGGGTKLEIK
notes: variable heavy chain of 16C; variable light chain of 16C; IgM; Vl bt20, JK2; From the human La transgenic mouse; called polyreactive; also called anti-La mab (16C); source: hybridoma cell culture supernatant
binding result [7]: binds

B9: IgM type anti-Ro60 monoclonal antibody 312G (antibody, V domains shown)
VH: EVQLEESGPGLVAPSQSLSITCTVSGFSLSRYSVHWVRQPPGKGLEWLGMIWGGGSTDYNSALKSRLSISKDNSKSQVFLKMNSLQTDDTAIYYCATSNWPYAMDYWGQGTSVTVSS
VL: DIVMTQSPAIMSASPGEKVTMTCSASSSVSYMHWYQQKSGTSPKRWIYDTSKLASGVPARFSGSGSGTSYSLTISSMEAEDAATYYCQQWSSNPPTFGAGTKLELK
notes: variable heavy chain of 312G; variable light chain of 312G; IgM; Vl kk4, JK5; From the human La transgenic mouse; called polyreactive; also called anti-Ro mab (312G); anti-Ro60 mab; source: hybridoma cell culture supernatant
binding result (Ro60 antigen): binds
binding result [4]: no binding

B10: anti-La monoclonal antibody 24BG7 (antibody, V domains shown)
VH: QVQLQQSGAELARPGASVKLSCKASGYSLTNYGISWVKQRTGQGLEWIGEIYRGSGNSYYNEKFKGKASLTADKSSSTAYMQLSSLTSEDSAVYFCARGGLSFAYWGQGTLVTVSA
VL: QIVLTQSPAIMSASPGEKVTMTCSASSSVTYMHWYQQKSGTSPKRWIYDTSKLASGVPARFSGSGSGTSYSLTISTMEAEDAATYYCQQWISNPPTFGGGTKLEIK
notes: variable heavy chain of 24BG7; variable light chain of 24BG7; IgG1; Vl kk4, JK2; From the human La transgenic mouse; also called Group 1 anti-La mab (24BG7); source: hybridoma cell culture supernatant
binding result [2]: binds
